{
  "source": "the DeepSol protein solubility set",
  "data": [
    {"assay": "soluble on expression in E. coli; label from the status in PepcDB or PDB records", "values": [
      {"sequence": "MDQLEHLSLVSKVLSEVENHFGVVEKDVAEFVIHLAQENPTFDKLKKALDSQGLGDQFDDSLTATILRIVQSMTAVKKKNKKGGDSKEDIKDSHKITLISDAKEEIKARLPALAMANTAKEKEDNEDDLMAQLEKMEGRYESEKRLQKESDSKRNRSRSRSRSRDRKRRRSRSGDRDRRRRSRSREDRRDRDRRDRDRDRDRGRGDRRGDDRQRDRRDRRDDGGARKSEVAEIGKIYDGRVNSIQSFGAFITLEGFRQKQEGLVHISQIRNERVQTVADVLKRGENVKVKVNKIENGKISLSMKEVDQNSGEDLNPRETDLNPDAIGVRPRTPPASTSSWMNPEASGVGQGPSTSIGGGKARVRISTPERWELRQMQGAGVLTATDMPDFDEEMGVLRNYDDESDGEDIEIELVEDEPDFLRGYGKGGAEIEPVKVVKNPDGSLAQAALMQGALSKERKETKIQAQRERDMDTQKGFSSNARILDPMSGNQSTAWSADESKDRNNKMKEMPEWLKHVTAGGKATYGRRTNLSMVEQRESLPIFALKKNLMEAMIDNQILVVVGETGSGKTTQMTQYAIEAGLGRRGKIGCTQPRRVAAMSVAKRVAEEYGCKLGTDVGYTIRFEDCTSQDTIIKYMTDGMLLRECLIDPDLSGYSLIMLDEAHERTIHTDVLFGLLKAAARKRPELKLIITSATLDSVKFSEYFLEAPIFTIPGRTFPVEILYTREPESDYLEAAHITVMQIHLTEPPGDVLVFLTGQEEIDTSCEVLYERMKSMGPDVPELIILPVYGALPSEMQTRIFDPAPAGKRKVVIATNIAETSLTIDGIFYVVDPGFVKQKIYNPKSGMDSLVVTPISQAAAKQRSGRAGRTGPGKCYRLYTERAFRDEMLPTPVPEIQRTNLASTLLQLKAMGINNLIDFDFMDAPPLDSMITALNTLHTLSALDGDGLLTKLGRRMAEFPLEPSLSKLLIMSVDLGCSEEVLTIVAMLNVQNIFYRPKEKQDHADQKKAKFHQPEGDHLTLLAVYNSWKNHHFSQPWCFENFIQVRSMKRAQDIRKQLLGIMDRHKLLMVSCGRDVSRVQKAICSGFFRNAAKRDPQEGYRTLTDGQNVYIHPSSACFQQQPEWVVYHELVMTTKEYMREVTAIDPKWLVEFAPSFFKIGDSTKLSTFKRNQKIDPLFDKYADANAWRITRVKKRIYNPNK", "soluble on expression in E. coli": "soluble"},
      {"sequence": "MSLIELWPAIDLIGSTSVRLTEGKYDSEEKMSRSAEESIAYYSQFECVNRIHIVDLIGAKAQYAREFDYIKSLRRLTTKDIEVGGGIRTKSQIMDYFAAGINYCIVGTKGIQDTDWLKEMAHTFPGRIYLSVDAYGEDIKVNGWEEDTELNLFSFVRQLSDIPLGGIIYTDIAKDGKMSGPNFELTGQLVKATTIPVIASGGIRHQQDIQRLASLNVHAAIIGKAAHQASFWEGLEEGHHHHHH", "soluble on expression in E. coli": "soluble"},
      {"sequence": "MGSDKIHHHHHHMRALVLAAGKGTRMKSKIPKVLHPLSGRPMIEWVIETAGKVAQKVGVVLGFEAELVRKALPEWVDVFVQGEQLGTAHAVMCAKDFIEPGDDVLILYGDVPLISENTLKRMIEEHRKGADVTILVADLEDPSGYGRVIQDGDKYRIIEDTDLPEELKSVTTINTGFYVFSGDFLLRALPEIKNENAKGEYYLTDAVNFAEKVRVVRTDDLLEITGVNTRKTLVWLEEQLRMRKIEELLENGVTILDPATTYIHYSVEIGMDTVIYPMTFIEGKSRVGENCEIGPMTRIVDCEIGNNVKITRSECFKSVIEDDVSVGPFARLREGTILKKSSKIGNFVEIKKSTIGEGTKAQHLSYIGDAFVGKNVNVGAGTITCNYDGKKKNPTFIEDGAFIGSNSSLVAPVRIGKGALIGAGSVITEDVPPYSLGLGRARQVVKEGWVLKKRKEE", "soluble on expression in E. coli": "not soluble"},
      {"sequence": "SSFQTSLPRLPVPAVKDTVNRYLQSVRPLMKEEDFKRMTALAQDFAVGLGPRLQWYLKLKSWWATNYVSDWWEEYIYLRGRGPLMVNSNYYAMDLLYILPTHIQAARAGNAIHAILLYRRKLDREEIKPIRLLGSTIPLCSAQWERMFNTSRIPGEETDTIQHMRDSKHIVVYHRGRYFKVWLYHDGRLLKPREMEQQMQRILDNTSEPQPGEARLAALTAGDRVPWARCRQAYFGRGKNKQSLDAVEKAAFFVTLDETEEGYRSEDPDTSMDSYAKSLLHGRCYDRWFDKSFTFVVFKNGKMGLNAEHSWADAPIVAHLWEYVMSIDSLQLGYAEDGHCKGDINPNIPYPTRLQWDIPGECQEVIETSLNTANLLANDVDFHSFPFVAFGKGIIKKCRTSPDAFVQLALQLAHYKDMGKFCLTYEASMTRLFREGRTETVRSCTTESCDFVRAMVDPAQTVEQRLKLFKLASEKHQHMYRLAMTGSGIDRHLFCLYVVSKYLAVESPFLKEVLSEPWRLSTSQTPQQQVELFDLENNPEYVSSGGGFGPVADDGYGVSYILVGENLINFHISSKFSCPETDSHRFGRHLKEAMTDIITLFGLSSNSKK", "soluble on expression in E. coli": "soluble"},
      {"sequence": "MARSDSDKNGNGGNLGFEAELFKAADKLRGNMEPSDYKHVALGLIFLKYISDAFEAKHKALLAEDALAAEDKDEYLADNVFWVPKEARWSHLQANAKQPTIGTLIDDAMRAIEKDNASLKGVLPKDYARPALNKVMLGELIDLISGIGHLLPSPSGRGAGGEGQSFDILGRVYEYFLGQFAGAEGKRGGEFYTPRSVVRVLVEMLEPYSGRVYDPCCGSGGMFVQSEKFVQEHGGRIGDIAIYGQESNYTAWRLAKMNLAVRGIDADIRWNNEGSFHKDELRDLKADYILANPPFNISDWGGDRLREDVRWQFGVPPVGNANYAWLQHIYWHLAPNGTAGVVLANGSMSSNQSGEGEIRRAMLEADAVDCMVALPGQLFYSTQIPACLWFLARNKNPANGKTGGLRDRRGHVLFIDARKMGVLVDRTRRELSDEEIQKIARTYHAWRGEPDAGDYADVAGFCKSATLDEIRKHGHVLTPGRYVGAAEVEDDGEPFEEKMARLAAQWRQQRDEAAKLDAAIEANLKELGFWE", "soluble on expression in E. coli": "soluble"},
      {"sequence": "MKPKVVRYLDEGEFPLAEEEALRLYRAMRRARFFDEKALTLQRQGRLGVYAPFMGQEAAQVGVALALEERDWVVPSYRESAMLLAKGLPIHTLILYWRAHPAGWRFPEGVRAVNPYIPIATQIPQAVGLALAGRYRGEDWVVATSIGDGGTSEGDFHEGLNFAAVFGAPVVFLVQNNGYAISVPKSRQMKVDYVARRAEGYGMPGVVVDGNDAFAVYLEAKKAVERARKGEGPTLLEALTYRLAPHTTSDDPSRYRSKEEEEAWRAKDPILRLRKALEGRGLWGEEAEKALLLELEEEFQRELALADEAPEPRPEEIVEHVYAEMGPDQRRAWEALRRGLHVEEVE", "soluble on expression in E. coli": "soluble"},
      {"sequence": "MPRVDHGSPQAGPPAPCVGILLAGGQGRRFAAASGGQDKLLARLADGTAVAVRAAAALREATDAVVAVVRPESAVLAALLRGQGCHVLESEQAREGMGASLAAAARFLLAGQVPDMPERADVCLVALADMPWVRRDTLSAVRAAACADGITVPVHQGRRGHPVAFGRSLWGELAALRGDVGARELLRRHRVAAVEVDDPGVAADVDTPGDLAGDRALEHHHHHH", "soluble on expression in E. coli": "not soluble"},
      {"sequence": "MAKVRIYQLAKELGMETQELLELLDQMGVAYKSHASTLEEKDAEAVRELVKEQRGLQEKLAEEERRKSLPRRPPVVVIMGHVDHGKTTLLDYLRKSRIAEKEAGGITQHVGAFEVKTPQGTVVFIDTPGHEAFTTIRQRGAKVADIAVIVIAADDGIMPQTEEAIAHAKAAGAKLIFAINKIDLPQADPEKVKRQLMERGFVPEEYGGDAIVIPISAKTGQGVQDLLEMILLLAELEDYRADPNAEPRGVILESKLDKQAGIIANMLVQEGTFRVGDYVVAGEAYGRIRAMMDADGNQRKEAGPGSAVQVLGFQELPHAGDVVEWVPDLEAAKEIAEERKEERKAREEEEKARRPRTMAELLRAMQEEGRKELNLILRADTQGSLEAIQHILARESTEDVKINILLAQVGAPTESDVLLAQTANAAILAFGVNPPGSVKKKAEEKGVLLKTFRIIYDLVDEVRNMVKGQREPQYKEEVLGQAEVRAIFRLPTGKQVAGCMVTQGRIPRNAEVRVLRDGQVIWQGRIASLKRFKEDVREVAQGYECGIGLDGFDDFREGDVIEAFQMVEVPA", "soluble on expression in E. coli": "soluble"},
      {"sequence": "MSYCCCQSNIPPDGCIRDGMPVFCGLFPSGYRAPPRSLSPPAFRSVLVSGHQPQYADCQTRTGRPVRSPVTPPPAHTSAVHGALSLPGQPADMAMMCFHSQPRDEYGETDDTGMYPAHWKDWPSGCTRSQSVYR", "soluble on expression in E. coli": "soluble"},
      {"sequence": "MGSDKIHHHHHHMIPEEIYKILRKQRYQIDGHTAVKLCGWVRKKMLEDKNCYKSKFYGIETHRCIQCTPSVIWCQQNCIFCWRVLPRDIGIDISQIKEPKWEEPEVVYEKILAMHKRIIMGYAGVLDRVGEKKFKEALEPKHVAISLSGEPTLYPYLDELIKIFHKNGFTTFVVSNGILTDVIEKIEPTQLYISLDAYDLDSYRRICGGKKEYWESILNTLDILKEKKRTCIRTTLIRGYNDDILKFVELYERADVHFIELKSYMHVGYSQKRLKKEDMLQHDEILKLAKMLDENSSYKLIDDSEDSRVALLQNENRKINPKL", "soluble on expression in E. coli": "not soluble"},
      {"sequence": "MDLYYRPGSAPCRSVLMTAKALGVEFDKKTIINTRAREQFTPEYLKINPQHTIPTLHDHGFALWESRAIMVYLVEKYGKDDKLFPKDVQKQALINQRLYFDMGTLYKSFSEYYYPQIFLKKPANEENYKKIEVAFEFLNTFLEGQTYSAGGDYSLADIAFLATVSTFDVAGFDFKRYANVARWYENAKKLTPGWEENWAGCQEFRKYFDN", "soluble on expression in E. coli": "soluble"},
      {"sequence": "MLRKDIGIDLGTANTLVFLRGKGIVVNEPSVIAIDSTTGEILKVGLEAKNMIGKTPATIKAIRPMRDGVIADYTVALVMLRYFINKAKGGMNLFKPRVVIGVPIGITDVERRAILDAGLEAGASKVFLIEEPMAAAIGSNLNVEEPSGNMVVDIGGGTTEVAVISLGSIVTWESIRIAGDEMDEAIVQYVRETYRVAIGERTAERVKIEIGNVFPSKENDELETTVSGIDLSTGLPRKLTLKGGEVREALRSVVVAIVESVRTTLEKTPPELVSDIIERGIFLTGGGSLLRGLDTLLQKETGISVIRSEEPLTAVAKGAGMVLDKVNILKKLQGAGGSHHHHHH", "soluble on expression in E. coli": "soluble"},
      {"sequence": "MAHHHHHHMNVAKREFIRGMMAHYRASLPPPEHSVVIHELQKRVLDIGMLAVNKAHVELFGSHVSGFCTPHSDADISLTYRNFSPWLQGMERVDEQNNKRMTRFGKEASAMGMEDVRYIRARIPVVQFTDGVTGIHCDVSIGNIGGVENSKILCAIRQVFPDFYGAYIHLVKAWGKAREVIAPERSTFNSFTVTTMALMVLQELGLLPVFSKPTGEFGELTVADAEMLLQEFKLPPIYDSLHDDDEKLGEAVFFCLQRFAEYYAKYDFSAGTVSLIHPRRHRTVYERVVRRHLELLGSRKRLEWEKHIAEHKEDGPLDENDFSASMQNETTQRPSNSPYVVEDFVNYVNCGRRVQASRVRHIQQEFNRLREMLIDKESELKFDEVFRESDTVPRFQGFEGVGTRDHRVKTFRPQ", "soluble on expression in E. coli": "not soluble"},
      {"sequence": "MKFLRIEDEVIYSKKRYKLKREIDKLFLDEEYFQIEPQLFEEYDEFTTINNKIPEESMVKVVNGKVMVLRADITTSIIKSLVPRWEDGLKLKLFYNSSIYKNKNTVGIKEIRQIGCEYLGEASVEADREVVKLALKILEKYNNNFILEVGSSKYIHGLLEELNLNKNCENQIKNLLYTKNTHELKVYIEELKIKHEVKELLSNILSLQGNLYNVIEKSNKFYCNNKMKQALEELKQVNNLIEECNFLDKARFDLSMITMLDYYEGIMFRGYYPNSYKEILSGGRYDSLTKEYGKEIPAIGFTLSVDELMKYVYK", "soluble on expression in E. coli": "soluble"},
      {"sequence": "RDIKDLIVALDIGTSKVVAVVAEILPEGRFEVLGLGQHESRGMRKGVVVNIETTVNSIQRALEEAELMADCKIRDVYAGIAGSHIRSFNSSGMVAVKDKEVTATDVARVIETAKAVNIPTDQ", "soluble on expression in E. coli": "not soluble"},
      {"sequence": "NGLVDSMIKNAIAWQTSHLQIHQSAYLVNPELKDTIPDSQSIVTTLDKHQSVKAVSERFLADGMIASARSSRGIRINGIHLEQEQKITPLSEHIIDGYWLDEEGRNPILVSQKTAKRLKLRVGSKVILTLSDINGDVSGAAFRVKGIFKTPSTTFDDGNVYVRKADLEKIAGIAGAHEIAILLNANDDDVLQNIVSFTRTLTDDGSGKPLTVRTWLEIQPLLSTMMSSMDISNQ", "soluble on expression in E. coli": "not soluble"}
    ]}
  ]
}
